Test [1] deals with paclitaxel-stabilized microtubules (UniProt P02550).
Test [2] has the same target. As to the kind of experiment: co-sedimentation.
Test [3] shares this target. Nature of the test: co-sedimentation. The source holds these as a separate data set.
For test [4] the target is unchanged. As to the kind of experiment: co-sedimentation. This is another data set of the same source.

By Kd is commonly meant the concentration at which binding is half-saturated. A low value points to tighter binding.

Like-named read-outs stand apart in the source and are kept apart here. Some results are limits rather than exact numbers.

Sequence of UniProt P02550 (P02550 whole entry, chain 1 of 2): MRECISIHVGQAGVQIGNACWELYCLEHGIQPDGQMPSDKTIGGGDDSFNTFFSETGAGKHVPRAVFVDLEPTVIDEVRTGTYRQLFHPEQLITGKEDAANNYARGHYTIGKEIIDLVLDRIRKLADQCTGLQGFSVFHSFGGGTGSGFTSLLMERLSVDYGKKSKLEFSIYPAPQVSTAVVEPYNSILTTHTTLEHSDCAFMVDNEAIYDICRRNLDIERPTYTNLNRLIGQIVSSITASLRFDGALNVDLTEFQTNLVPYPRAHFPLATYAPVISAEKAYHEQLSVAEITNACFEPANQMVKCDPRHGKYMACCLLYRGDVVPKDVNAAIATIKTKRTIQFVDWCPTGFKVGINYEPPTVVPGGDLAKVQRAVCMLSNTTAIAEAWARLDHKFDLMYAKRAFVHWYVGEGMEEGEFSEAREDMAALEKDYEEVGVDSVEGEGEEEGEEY
Sequence of UniProt P02550 (P02554 whole entry, chain 2 of 2, further chain): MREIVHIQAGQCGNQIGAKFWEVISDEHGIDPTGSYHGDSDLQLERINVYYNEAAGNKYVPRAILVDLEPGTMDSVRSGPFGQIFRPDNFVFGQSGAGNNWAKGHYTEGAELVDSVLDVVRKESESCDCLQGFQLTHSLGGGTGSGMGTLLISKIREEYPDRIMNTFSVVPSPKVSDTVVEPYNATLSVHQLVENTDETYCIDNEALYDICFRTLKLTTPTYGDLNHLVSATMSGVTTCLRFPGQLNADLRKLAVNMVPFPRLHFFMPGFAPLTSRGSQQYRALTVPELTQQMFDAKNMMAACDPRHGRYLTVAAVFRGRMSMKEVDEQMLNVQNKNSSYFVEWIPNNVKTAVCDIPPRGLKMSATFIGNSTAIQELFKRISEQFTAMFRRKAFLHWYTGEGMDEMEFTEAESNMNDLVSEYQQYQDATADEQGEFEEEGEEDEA

On to “HFG380 Q3340C I3513C double-Cys mutant, untreated, P34036 1388-4730”, for which the Km(MT) of MT-activated steady-state ATPase, untreated dynein, 1 mM ATP, 25 °C in test [1] stood at 14.5 µM. The Kd was 0.65 µM in test [2] and greater than 10 µM in test [3].
For the substance “HFG380 L3339C I3517C double-Cys mutant, oxidized (stalk coiled coil locked in the −β registry), P34036 1388-4730”, the Kd in test [4] and in test [3] was greater than 10 µM each time.
Consider “HFG380 L3339C Q3510C double-Cys mutant, oxidized (stalk coiled coil locked in the +β registry), P34036 1388-4730”, for which the Kd in test [4] and in test [3] was greater than 10 µM in each case.
For the substance “HFG380 L3339C I3517C double-Cys mutant, untreated, P34036 1388-4730”, the Km(MT) of MT-activated steady-state ATPase, untreated dynein, 1 mM ATP, 25 °C in test [1] stood at 26.6 µM. The equilibrium dissociation constant (Kd) in test [3] was greater than 10 µM.
With “HFG380 L3339C Q3510C double-Cys mutant, untreated, P34036 1388-4730”, the Km(MT) of MT-activated steady-state ATPase, untreated dynein, 1 mM ATP, 25 °C in test [1] stood at 40.5 µM. The values for the Kd in test [2] and in test [3] were 0.61 µM and greater than 10 µM, respectively.

For the origin of these results see publication PMC2757048.
